Measured values published in patent publication US20200109197A1.

Target: recombinant anti-human CD3 antibody with TEV cleavage site in the upper hinge region of mouse IgG1 (mouse) [IgG part: P01868]
Assay: cell-based or functional assay

AcTEV™ Protease (from UniProt P04517 2038-2279) (enzyme)
kappa-positive faction of beads after one hour incubation with the protease, 37° C.: 7% | kappa-positive faction of beads after one hour incubation with the protease, room temperature: 19%
